This passage reports self-cleavage results from the RNAGym collection of RNA variant scans (doi:10.7554/elife.80360).

B1: CPEB3 Ribozyme (parent)
chain: GGGGGCCACAGCAGAAGCGUUCACGUCGCGGCCCCUGUCAGAUUCUGGUGAAUCUGCGAAUUCUGCUGU

Variants of B1 are the subject of this data set. Description: self-cleavage, relative activity (ratio to wild type); higher = more cleavage; co-transcriptional.
As to G31C G50U, the self-cleavage turned out to be 0.238.

On to G31C G50C, for which the self-cleavage turned out to be 0.245.

For C32G C35G, the self-cleavage came out at 0.303.

As to C32G C35A, the self-cleavage was 0.143.

As to G31C A40G, the self-cleavage is 0.229.

On to G31C U64C, for which the self-cleavage stood at 0.273.

Consider G31C U64A, for which the self-cleavage is 0.111.

Take G31C U44A: the self-cleavage was 0.257.

For the variant G31C U44G, the self-cleavage is 0.242.

Take C32A U67G: the self-cleavage was found to be 0.936.

For C32A U67A, the self-cleavage worked out at 0.956.

On to C32A U67C, for which the self-cleavage is 0.882.

Turning to G31U G48A, the self-cleavage amounted to 0.756.

For G31U G48C, the self-cleavage amounted to 0.812.

Consider G31U G48U, for which the self-cleavage came to 0.797.

Turning to G31U G47U, the self-cleavage was 0.795.

Consider G31U G47A, for which the self-cleavage amounted to 0.787.

As to G31U G47C, the self-cleavage was found to be 0.684.

C32A A60U: the self-cleavage was 0.257.

With C32A A60C, the self-cleavage came to 0.27.

In the case of G31C G58A, the self-cleavage was 0.21.

In the case of C32G U61A, the self-cleavage came to 0.292.

Take C32U C66A: the self-cleavage was 0.893.

As to C32U C66U, the self-cleavage is 1.

As for C32U C66G, the self-cleavage came to 0.923.

With C32U C35G, the self-cleavage was 0.349.

Turning to C32U A51C, the self-cleavage was determined as 0.964.

In the case of G31U A59U, the self-cleavage stood at 0.334.

In the case of G31C C33G, the self-cleavage was 0.443.

Turning to G31C C33A, the self-cleavage was determined as 0.338.

Take G31U U61G: the self-cleavage worked out at 0.351.

On to G31U U61A, for which the self-cleavage came out at 0.289.

As to C32G U43A, the self-cleavage came out at 0.238.

Take C32G U43G: the self-cleavage worked out at 0.331.

As to C32G U43C, the self-cleavage is 0.364.

As to C32A U49A, the self-cleavage came to 0.871.

As for C32A U49C, the self-cleavage was 0.704.

In the case of C32G C57G, the self-cleavage worked out at 0.263.

For the variant G31U G68A, the self-cleavage came to 0.957.

As for G31U G37C, the self-cleavage amounted to 0.189.

G31U G37U: the self-cleavage is 0.163.

Consider C32G C33G, for which the self-cleavage amounted to 0.179.

With C32G C33U, the self-cleavage is 0.287.

In the case of C32G C33A, the self-cleavage came to 0.309.

Regarding C32A C45G, the self-cleavage was 0.667.

On to C32A G41U, for which the self-cleavage was 0.362.

With C32A G41A, the self-cleavage turned out to be 0.344.

As to C32G U67C, the self-cleavage came out at 0.536.

With C32G U67G, the self-cleavage was determined as 0.584.

Turning to C32G U67A, the self-cleavage turned out to be 0.525.

As for G31U U38C, the self-cleavage is 0.505.

With G31U U38A, the self-cleavage was found to be 0.537.

For the variant G31U U38G, the self-cleavage was 0.124.

For the variant C32U C63A, the self-cleavage worked out at 0.886.

Turning to C32U C63U, the self-cleavage amounted to 0.956.

G31C U67A: the self-cleavage was 0.277.

In the case of G31C U67G, the self-cleavage came to 0.355.

For the variant C32U A42U, the self-cleavage turned out to be 0.933.

Take C32U A42G: the self-cleavage stood at 0.914.

C32U A42C: the self-cleavage amounted to 0.961.

Turning to C32A C39A, the self-cleavage amounted to 0.434.

C32A C39U: the self-cleavage worked out at 0.388.

Turning to G31U U67A, the self-cleavage is 0.89.

On to G31U U67G, for which the self-cleavage worked out at 0.919.

C32G U46G: the self-cleavage turned out to be 0.522.

On to C32G U46A, for which the self-cleavage came out at 0.492.

Take G31C C63A: the self-cleavage came out at 0.233.

With G31C C63G, the self-cleavage was found to be 0.133.

G31C C63U: the self-cleavage came out at 0.251.

Take C32A G68U: the self-cleavage is 1.01.

C32A G68A: the self-cleavage was 0.994.

With C32A G50C, the self-cleavage is 0.716.

As to C32A G50A, the self-cleavage was found to be 0.693.

As to G31U U62C, the self-cleavage amounted to 0.226.

With G31U U62G, the self-cleavage turned out to be 0.274.

C32A U44G: the self-cleavage is 0.469.

As to C32A U44A, the self-cleavage worked out at 0.357.

For the variant C32A C66A, the self-cleavage turned out to be 0.698.

On to C32A C66U, for which the self-cleavage stood at 0.903.

As for G31C C34U, the self-cleavage was 0.281.

In the case of G31C C34G, the self-cleavage worked out at 0.382.

For the variant C32A G56U, the self-cleavage is 0.683.

With C32A G56A, the self-cleavage is 0.674.

As for G31U G41U, the self-cleavage was determined as 0.398.

As for G31C C66A, the self-cleavage came out at 0.252.

As for G31C C66G, the self-cleavage stood at 0.155.

Turning to G31C C66U, the self-cleavage was determined as 0.264.

For the variant G31U U46G, the self-cleavage stood at 0.638.

With G31U U46C, the self-cleavage was found to be 0.725.

G31U U46A: the self-cleavage turned out to be 0.785.

As for G31C U53A, the self-cleavage was 0.208.

C32A C63G: the self-cleavage worked out at 0.344.

With C32A C63U, the self-cleavage was found to be 0.772.

For the variant G31U C63U, the self-cleavage is 0.602.

As for G31C U43G, the self-cleavage amounted to 0.276.

For the variant G31C U43C, the self-cleavage came to 0.289.

Take G31U C54U: the self-cleavage worked out at 0.729.

On to G31U C54G, for which the self-cleavage was 0.33.

On to G31U C45G, for which the self-cleavage was determined as 0.559.

In the case of G31U C45A, the self-cleavage was 0.662.

For G31U A42C, the self-cleavage came to 0.458.

For G31U A42G, the self-cleavage is 0.692.

Consider C32G C34U, for which the self-cleavage is 0.363.

Consider C32G U44G, for which the self-cleavage is 0.426.

C32G U44A: the self-cleavage is 0.385.

Consider G31C G56A, for which the self-cleavage stood at 0.2.

In the case of G31C G56C, the self-cleavage was 0.139.

Consider G31C G56U, for which the self-cleavage was found to be 0.164.

On to G31U G50U, for which the self-cleavage is 0.754.

Regarding G31U G50C, the self-cleavage was determined as 0.742.

As to C32G G50C, the self-cleavage worked out at 0.299.

For C32G G50U, the self-cleavage stood at 0.503.

G31U C66G: the self-cleavage is 0.415.

For the variant G31U C66A, the self-cleavage came out at 0.489.

Turning to G31U C66U, the self-cleavage stood at 0.732.

With G31C C32A, the self-cleavage came to 0.474.

Take G31C C32U: the self-cleavage stood at 0.235.

On to C32U C33A, for which the self-cleavage came to 0.593.

As to C32U C33U, the self-cleavage is 0.861.

As to C32G, the self-cleavage was found to be 0.584.

Take C32U: the self-cleavage is 0.993.

With C32A, the self-cleavage turned out to be 0.866.

On to C32G G41A, for which the self-cleavage came to 0.35.

For the variant C32G G41C, the self-cleavage amounted to 0.267.

Consider G31C C57G, for which the self-cleavage worked out at 0.151.

As for C32G C45G, the self-cleavage came to 0.434.

Take C32A A51G: the self-cleavage turned out to be 0.521.

For G31A U69G, the self-cleavage was 1.02.

Consider G31C G37C, for which the self-cleavage was determined as 0.217.

G31C G37U: the self-cleavage was 0.203.

With G31C G37A, the self-cleavage turned out to be 0.19.

In the case of C32A G48C, the self-cleavage was determined as 0.862.

As to C32A G48A, the self-cleavage was found to be 0.875.

Take C32A G48U: the self-cleavage was found to be 0.901.

On to C32A C34U, for which the self-cleavage amounted to 0.362.

C32A C34A: the self-cleavage was 0.229.

Regarding G31C G65U, the self-cleavage came out at 0.136.

As for G31C G65A, the self-cleavage worked out at 0.147.

With C32G G47C, the self-cleavage came out at 0.683.

With C32G G47A, the self-cleavage was determined as 0.673.

As to G31U U49A, the self-cleavage was 0.71.

Consider G31U U49C, for which the self-cleavage stood at 0.731.

With G31U C33U, the self-cleavage was 0.4.

In the case of G31U C33G, the self-cleavage worked out at 0.2.

For G31U G58C, the self-cleavage is 0.611.

Consider G31U U53G, for which the self-cleavage amounted to 0.411.

For the variant G31U U53A, the self-cleavage was 0.545.

As for C32G U64A, the self-cleavage worked out at 0.235.

Turning to C32G U64G, the self-cleavage came out at 0.253.

Regarding G31U G56U, the self-cleavage amounted to 0.568.

With G31U G56A, the self-cleavage came out at 0.386.

G31U U36A: the self-cleavage is 0.189.

On to G31U U36G, for which the self-cleavage came out at 0.738.

On to G31C G41A, for which the self-cleavage was 0.201.

As for G31C G41C, the self-cleavage was determined as 0.173.

On to G31C U49G, for which the self-cleavage stood at 0.175.

Take G31C U49C: the self-cleavage was 0.178.

As to G31C U49A, the self-cleavage stood at 0.286.

C32U A59G: the self-cleavage was 0.954.

C32U A59C: the self-cleavage is 0.687.

For C32U A59U, the self-cleavage amounted to 0.785.

Take C32G U62A: the self-cleavage was 0.26.

C32G U62C: the self-cleavage is 0.306.

For C32G U62G, the self-cleavage came out at 0.271.

Regarding C32U C39U, the self-cleavage turned out to be 0.937.

As to C32G G68C, the self-cleavage came out at 0.768.

For C32G G68A, the self-cleavage was 0.808.
